T1: FcγRIIa R (human, UniProt P12318 34-217)
T1 construct: extracellular domain; Soluble extracellular domain with C-terminal His tag, expressed in FreeStyle293 cells; also called FcgRIIa R; FcγRIIa type R; not shown: His tag attached to the C terminus
T1 sequence (looked up): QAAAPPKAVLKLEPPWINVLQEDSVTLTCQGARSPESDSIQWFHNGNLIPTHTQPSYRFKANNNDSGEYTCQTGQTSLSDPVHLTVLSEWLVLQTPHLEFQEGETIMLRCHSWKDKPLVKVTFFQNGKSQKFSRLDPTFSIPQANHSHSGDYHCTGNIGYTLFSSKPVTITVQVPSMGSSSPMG

B1: GpH7-A5/GpH7-B3 variant T335_04F/GpL16-k0 (antibody, human IgG1, kappa)
heavy 1: not shown
heavy 2: not shown
light: DIVMTQSPLSLPVTPGEPASISCQASESLVHSNRNTYLHWYLQKPGQSPQLLIYKVSNRFSGVPDRFSGSGSGTDFTLKISRVEAEDVGVYYCSQNTHVPPTFGQGTKVEIERTVAAPSVFIFPPSDEQLKSGTASVVCLLNNFYPREAKVQWKVDNALQSGNSQESVTEQDSKDSTYSLSSTLTLSKADYEKHKVYACEVTHQGLSSPVTKSFNRGEC
notes: heterodimerized; mutation in one H chain only; also called He Ab
B2: GpH7-A5/GpH7-B3 variant I332_10E/GpL16-k0 (antibody, human IgG1, kappa)
heavy 1: not shown
heavy 2: not shown
light: B1 light
notes: as for B1
B3: GpH7-A5/GpH7-B3 variant S239_01G/GpL16-k0 (antibody, human IgG1, kappa)
heavy 1: not shown
heavy 2: not shown
light: B1 light
notes: as for B1
B4: GpH7-A5/GpH7-B3 variant K326_09D/GpL16-k0 (antibody, human IgG1, kappa)
heavy 1: not shown
heavy 2: not shown
light: B1 light
notes: as for B1
B5: GpH7-A5/GpH7-B3 variant K326_06M/GpL16-k0 (antibody, human IgG1, kappa)
heavy 1: not shown
heavy 2: not shown
light: B1 light
notes: as for B1
B6: GpH7-A5/GpH7-B3 variant S239_09D/GpL16-k0 (antibody, human IgG1, kappa)
heavy 1: not shown
heavy 2: not shown
light: B1 light
notes: as for B1
B7: GpH7-A5/GpH7-B3 variant K326_14T/GpL16-k0 (antibody, human IgG1, kappa)
heavy 1: not shown
heavy 2: not shown
light: B1 light
notes: as for B1
B8: GpH7-A5/GpH7-B3 variant H268_10E/GpL16-k0 (antibody, human IgG1, kappa)
heavy 1: not shown
heavy 2: not shown
light: B1 light
notes: as for B1
B9: GpH7-A5/GpH7-B3 variant H268_13S/GpL16-k0 (antibody, human IgG1, kappa)
heavy 1: not shown
heavy 2: not shown
light: B1 light
notes: as for B1
B10: GpH7-A5/GpH7-B3 variant T335_08L/GpL16-k0 (antibody, human IgG1, kappa)
heavy 1: not shown
heavy 2: not shown
light: B1 light
notes: as for B1
B11: GpH7-A5/GpH7-B3 variant K326_10E/GpL16-k0 (antibody, human IgG1, kappa)
heavy 1: not shown
heavy 2: not shown
light: B1 light
notes: as for B1
B12: GpH7-A5/GpH7-B3 variant K326_19Q/GpL16-k0 (antibody, human IgG1, kappa)
heavy 1: not shown
heavy 2: not shown
light: B1 light
notes: as for B1
B13: GpH7-A5/GpH7-B3 variant K334_18N/GpL16-k0 (antibody, human IgG1, kappa)
heavy 1: not shown
heavy 2: not shown
light: B1 light
notes: as for B1
B14: GpH7-A5/GpH7-B3 variant S267_01G/GpL16-k0 (antibody, human IgG1, kappa)
heavy 1: not shown
heavy 2: not shown
light: B1 light
notes: as for B1
B15: GpH7-A5/GpH7-B3 variant I332_04F/GpL16-k0 (antibody, human IgG1, kappa)
heavy 1: not shown
heavy 2: not shown
light: B1 light
notes: as for B1
B16: GpH7-A5/GpH7-B3 variant K334_07I/GpL16-k0 (antibody, human IgG1, kappa)
heavy 1: not shown
heavy 2: not shown
light: B1 light
notes: as for B1
B17: GpH7-A5/GpH7-B3 variant H268_18N/GpL16-k0 (antibody, human IgG1, kappa)
heavy 1: not shown
heavy 2: not shown
light: B1 light
notes: as for B1
B18: GpH7-A5/GpH7-B3 variant S267_02A/GpL16-k0 (antibody, human IgG1, kappa)
heavy 1: not shown
heavy 2: not shown
light: B1 light
notes: as for B1
B19: GpH7-A5/GpH7-B3 variant G236_10E/GpL16-k0 (antibody, human IgG1, kappa)
heavy 1: not shown
heavy 2: not shown
light: B1 light
notes: as for B1
B20: GpH7-A5/GpH7-B3 variant K334_15Y/GpL16-k0 (antibody, human IgG1, kappa)
heavy 1: not shown
heavy 2: not shown
light: B1 light
notes: as for B1
B21: GpH7-A5/GpH7-B3 variant P238_08L/GpL16-k0 (antibody, human IgG1, kappa)
heavy 1: not shown
heavy 2: not shown
light: B1 light
notes: as for B1
B22: GpH7-A5/GpH7-B3 variant S267_07I/GpL16-k0 (antibody, human IgG1, kappa)
heavy 1: not shown
heavy 2: not shown
light: B1 light
notes: as for B1
B23: GpH7-A5/GpH7-B3 variant I332_15Y/GpL16-k0 (antibody, human IgG1, kappa)
heavy 1: not shown
heavy 2: not shown
light: B1 light
notes: as for B1
B24: GpH7-A5/GpH7-B3 variant S337_14T/GpL16-k0 (antibody, human IgG1, kappa)
heavy 1: not shown
heavy 2: not shown
light: B1 light
notes: as for B1
B25: GpH7-A5/GpH7-B3 variant I332_09D/GpL16-k0 (antibody, human IgG1, kappa)
heavy 1: not shown
heavy 2: not shown
light: B1 light
notes: as for B1

For this experiment, the target named is T1, FcγRIIa R. The experiment is described as follows: SPR (Biacore), antibody captured via antigen peptide, FcγRIIa R as analyte; heterodimerized antibody. How it is done:
Analysis of interaction between objective antibody and the FcγR was carried out using Biacore T100 (GE Healthcare). HBS-EP+ (GE Healthcare) was used as the running buffer, and the measurement temperature was set to 25° C. Chips produced by immobilizing the antigen peptide by the amine coupling method to a Series S Sencor Chip CM5 (GE Healthcare), or alternatively, chips produced by allowing preliminarily biotinylated antigen peptides to interact with and immobilize onto a Series S Sensor Chip SA (certified) (GE Healthcare) were used. Antibodies of interest were captured onto an antigen peptide-immobilized chip, and allowed to interact to each FcγR diluted with running buffer. To regenerate and repeatedly use the chip, the antibodies captured on the chip were washed off by reacting 10 mM glycine-HCl, pH 1.5.
As to B1, the He/Con_2aR was 108 % of control (GpH7-A5/GpH7-B3/GpL16-k0 = 100).

Regarding B2, the He/Con_2aR was 114 % of control (GpH7-A5/GpH7-B3/GpL16-k0 = 100).

For the molecule B3, the He/Con_2aR is 128 % of control (GpH7-A5/GpH7-B3/GpL16-k0 = 100).

Consider B4, for which the He/Con_2aR was 148 % of control (GpH7-A5/GpH7-B3/GpL16-k0 = 100).

As to B5, the He/Con_2aR is 138 % of control (GpH7-A5/GpH7-B3/GpL16-k0 = 100).

Turning to B6, the He/Con_2aR is 137 % of control (GpH7-A5/GpH7-B3/GpL16-k0 = 100).

With B7, the He/Con_2aR was 134 % of control (GpH7-A5/GpH7-B3/GpL16-k0 = 100).

Turning to B8, the He/Con_2aR is 148 % of control (GpH7-A5/GpH7-B3/GpL16-k0 = 100).

On to B9, for which the He/Con_2aR was 127 % of control (GpH7-A5/GpH7-B3/GpL16-k0 = 100).

As to B10, the He/Con_2aR was 108 % of control (GpH7-A5/GpH7-B3/GpL16-k0 = 100).

On to B11, for which the He/Con_2aR was 148 % of control (GpH7-A5/GpH7-B3/GpL16-k0 = 100).

For the molecule B12, the He/Con_2aR is 129 % of control (GpH7-A5/GpH7-B3/GpL16-k0 = 100).

In the case of B13, the He/Con_2aR was 112 % of control (GpH7-A5/GpH7-B3/GpL16-k0 = 100).

For B14, the He/Con_2aR is 113 % of control (GpH7-A5/GpH7-B3/GpL16-k0 = 100).

With B15, the He/Con_2aR was 105 % of control (GpH7-A5/GpH7-B3/GpL16-k0 = 100).

Turning to B16, the He/Con_2aR is 114 % of control (GpH7-A5/GpH7-B3/GpL16-k0 = 100).

Take B17: the He/Con_2aR was 128 % of control (GpH7-A5/GpH7-B3/GpL16-k0 = 100).

As for B18, the He/Con_2aR is 155 % of control (GpH7-A5/GpH7-B3/GpL16-k0 = 100).

In the case of B19, the He/Con_2aR is 125 % of control (GpH7-A5/GpH7-B3/GpL16-k0 = 100).

B20: the He/Con_2aR is 108 % of control (GpH7-A5/GpH7-B3/GpL16-k0 = 100).

With B21, the He/Con_2aR is 140 % of control (GpH7-A5/GpH7-B3/GpL16-k0 = 100).

For B22, the He/Con_2aR is 111 % of control (GpH7-A5/GpH7-B3/GpL16-k0 = 100).

Regarding B23, the He/Con_2aR was 110 % of control (GpH7-A5/GpH7-B3/GpL16-k0 = 100).

As to B24, the He/Con_2aR was 110 % of control (GpH7-A5/GpH7-B3/GpL16-k0 = 100).

In the case of B25, the He/Con_2aR was 119 % of control (GpH7-A5/GpH7-B3/GpL16-k0 = 100).
